Experimental data taken from patent US20240219403.

Biological target: T1, NF1 GAP-related domain (GRD) (UniProt P21359)
T1 sequence: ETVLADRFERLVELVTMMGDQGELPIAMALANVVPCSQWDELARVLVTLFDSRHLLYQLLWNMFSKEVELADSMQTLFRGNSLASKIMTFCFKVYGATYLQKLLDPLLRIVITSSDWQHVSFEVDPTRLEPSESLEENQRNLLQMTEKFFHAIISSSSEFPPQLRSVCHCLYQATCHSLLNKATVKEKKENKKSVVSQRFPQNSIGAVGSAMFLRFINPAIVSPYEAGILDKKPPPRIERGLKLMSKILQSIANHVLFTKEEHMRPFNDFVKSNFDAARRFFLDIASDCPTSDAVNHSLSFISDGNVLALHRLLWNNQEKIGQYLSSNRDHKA

purified KRAS^WT loaded with GTP
GTP hydrolysis by KRAS^WT: conventional RAS-GAPs (such as NF1), which potently enhance hydrolysis by KRAS^WT (FIG. 3B: NF1>>RGS3)
